Data as given in a protein production outcome set (Wang et al. 2014).

Assay: label from the status in PepcDB records

MADVATKHPMEDEVKKTEASSLVGKLETDVEIKASADKFHHMFAGKPHHVSKASPGNIQGCDLHEGDWGTVGSIVFWNYVHDGEAKVAKERIEAVEPDKNLITFRVIEGDLMKEYKSFLLTIQVTPKPGGPGSIVHWHLEYEKISEEVAHPETLLQFCVEVSKEIDEHLLAEEEEVKTPETPSLVGKLETDVEIKASAEKFHHMFAGKPHHVSKASPGNIQGCDLHEGDWGQVGSIVFWNYVHDREAKVAKERIEAVEPNKNLITFRVIDGDLMKEYKSFLLTIQVTPKLGGPGSIVHWHLEYEKISEEVAHPETLLQFCVEVSKEIDEHLLAEE
protein production: failed

MSKKQKSKYIVIFGCGRLGSLIANLASSSGHSVVVVDKNEYAFHRLNSEFSGFTVVGDAAEFETLKECGMEKADMVFAFTNDDSTNFFISMNARYMFNVENVIARVYDPEKIKIFEENGIKTICPAVLMIEKVKEFIIGSEED
protein production: not failed

MGSGPELTQTSLETLQEALQTERITYVDTLNEDIGAVVESADQLAFDYVVGDVSDYGVSSNDHVHLDLVHEGSTIHCVLFGYKRSAIDATIEDGMQVAVKGSLSYYEDGGNVSVIVEDIVEVGEGTYQRIYEQNRQLLDSDGLLDPEHKQALPDFPERIGIATSATSDARMDAITSIHERYPDVDIVIQNTSVQGDDAMMSIMGAISELDDDPRVDVIVLTRGGGSDKHLRVFNETPLCRVIHKTETPVVVGVGHENDRTLADEVADRRVMTPTEAGNIVPERTTLEAELETLEERLNTAYTETAETTLETMDDRLTRAYRRTVESDLSAFEAELDRTYDTHVRDELTDLANRLEQARTQYDQQREREQEVAAHRRQRRRLLLILVALGLLVVALLLYILLPL
protein production: failed

MNDISVSADRHAIERGSFNGNAKEYFGIWIVNILLTIMTLGIYSAWAKVRRKRYFNGNTLLAGRAFGYHATGGQIFKGRLIAFAFIVFSQLVGLIHPFLVFAPTILLLIFLPWVITRSIRFNARVTSYRNVRFDFVGTAWGAFVSILLGSFVALLSIGILAPLASRWANRYIVSNLHYGDRRFSTDPKIGALYRAWIIPALLVVVGGVLAVFLLIFLAMVLVQAAGIGSRELATAPENYEIVTLFGLGQILINLLVAMLIYGFASTVYKAGVRNVVVSSTLLDGKHELHSDLHRGRYLWIVFSNLIVTIFTFGLMRPWAAVREAQYAVERMGISFKGDMGEVLSSMEATGAAVSAEYMDMEGFEFGF
protein production: not failed

MGLPLVLDFDLYFCLMKCFIHQQLHLKVGYRLTERFVKTFGEERDGVWFYPRPEDIAARSYDDLRALQLSRRKAEYIVDVSRLIADGTLRLDDLEQMEDGEVMERLTAIRGIGPWTVQNFLLFGLEHHHHHH
protein production: failed

MAINPNPRSVVAVRATVPEDAFTAGALGTLREGSGVVIRNDGLVLTIGYLITEAEEVWLTAYDGRVIPAHALAYDQESGFGLVQALAPTGLPAVALGDAGKARIGDAVVLADGIGRAVEAKIVTKQEFAGYWEYLLDEAIFIAPAHPSWGGAPLFGADGALLGIGSLRLQMSRAGEVADINMVVPIDLLPPILDDLLTRGQVAKPPRPWLGALSAESDGKVVVMSVTEGGPAAKAGLRQGDVISEVRDGAVDGLADFYRKLWDSGSAGAEIPMRVVRDGRETWLRVKSADRGSFLKKPQLQ
protein production: failed

KVGLIIISHGRIATETVNVVKELLGVKFPVAIDMPLDEKPINIYNKAVELSKIIDQGKGILFLVDIGSLTNIGQIVNKRTNISTKTIDRVDLLMALEATRKVSMGEEELDEIFFSLLKDRMGYNYELEKHIDKS
protein production: failed

MKMTAKMRREFPTAFLLLFLVPVMIPVGEAVWLDVPPTGTKCVSEEIQSNVVVLADYLIISEDHEVMPTISVKVTSPYGNNLHNMENVTHGQFAFTTQESGNYLACFWADEKSHGNKNVSINIDWRTGIAAKDWASIAKKEKIEGVELEIRKLEGAVEAIHENILYLRNREADMRTMSEKTNSRVAWYSIMSLGVCIAVSGFQVLYLKQYFEKKKLI
protein production: failed

MGGHFWPPEPYTVFMWGSPWEADSPRVKLRGREKGRQTEGGAFPLVSSALSGDPRFFSPTTPPAEPIVVRLKEVRLQRDDFEILKVIGRGAFSEVAVVKMKQTGQVYAMKIMNKWDMLKRGEVSCFREERDVLVNGDRRWITQLHFAFQDENYLYLVMEYYVGGDLLTLLSKFGERIPAEMARFYLAEIVMAIDSVHRLGYVHRDIKPDNILLDRCGHIRLADFGSCLKLRADGTVRSLVAVGTPDYLSPEILQAV
protein production: failed

MTKSTPHPSSIIKAEQQSLLYLHIAVFLFGGTALFSKLIGLPALDITVYRTGIAALALFILLTLQKKQISLSSMKDYGIAILLGCVVGLHWVTYFTGMQMAGVTVGMIAFFTYPVITVFIEPFFNRTVPKMKDMITAFVVIIGIVLLIPEISFGNQITLGIVTGIISAVFFALRNILHKNYFSHYSGPHTMLYQTLVACLMLCLFVEVPPMQVTESDWLLLLLVGVVFTATPHALFASSLRSLSATTAGLISCLQPLYGSILAIILLHERPDILTIIGGLLVVSAAIFETWSVSRGRR
protein production: failed

QHTEERELKKRLMNTARTVSEMTEVKEALARKKQTEAVRHAVEEIRMINEADYIVVMDMNHIRYTHPVSTSIGKKSEGADEEAAFAEHIYFSEAKGEIGTAVRAFYPVKDQDLNQIGVVLVGKTLPGIADILLHLKRD
protein production: not failed

MRSWAIDLEEYLMSKALEGKSPGTVDRYRYELQRLLSYVNKAVRDITEGDISGYMRAYKAIRQVSNQTLKNVRAVYSSFFAWLRDRDRIRRNPMALVEAIKVLEHHHHHH
protein production: failed

TGQGWMLNLRREKFQDPKVREALNLMFNFEWSNQTLFYGLYTRVDSFWENSYLEAEGAPSEAEAALLKPLVDEGLLPASILTEPPVSPPVSGERQLDRRNLRAASKLLDEAGWTVGSDGMRRNAKGEVLRVEFLNDSQTFDRVISPFVENLRALGVDALMTRVDNAQMESRTRPPSYDFDITTGNARTNYISGAELKQYYGSETADISAFNIMGLKDKAVDRMIEVVLAAKTSEELEVATKALDRVLRLQRFWVPQWYKA
protein production: failed

MLSKILKTSLCFIFMTCWVTTAQAFKGPLETPASMKLHATTSQLTAVTRNGNRLAAVGARGLVLLSDDNGKKWQQVAVPVSSNLVSVQFPVPDQGWAVGHDGVVLHSGDGGRTWSKQLDGNQVAKIMLKHYEKLAAEGDAAASKILPDIQRILQEGADKPFMDVWFLDEKEGFVAGAFNLIMHTTDAGKTWVPLFERTDNPKNLHIYALKGVGKEVYLAGEMGMLRRWDRASQRFVTIASPYKGTFFGLLAKDTTILAFGLRGNAFRSSDRGNTWRKLNTNTTAGLTGGTFLDDGRAVLVSQDGQVLVIDVGSETFVPAKVSSPMAFSSVAPAGKNGIVAVGSRGVITESLK
protein production: failed

MSLNGSSIIEFEDMTWSQQVEDSKKPVVVMFYSPACPYCKAMEPYFEEYAKEYGSSAVFGRINIATNPWTAEKYGVQGTPTFKFFCHGRPVWEQVGQIYPSILKNAVRDMLQHGEECIRKSTPVGQDITGYVEGHHHHHH
protein production: not failed

MNLPKVKMLQVSKCLIGLAVMMLQSCDVADNRRDMLCGNWESVEGKPDVLIYKEGEAYKVTVFRRSGLRRKLKPETYLLQEENGNLFMNTGFRIDVSYNEATDVLTFSPNGDYVRVKPQPGHPTEE
protein production: failed

MTIPELPKDLIEEILCYVPATYLKRLRSTCKGWNRLFKDDRRFAKKHYDKAAKQFLPLMSTNEELCAMSVNLHGTIPSLEVKDKPWLFVSDSKHCDIEISRIFHSGGLLLCFSRDGEISIIVWNPLTSETRLIRTRNRRDKGRNFVLGYYQEDKKTYYKILSFYLDSKDFEIFEFNSDSWRFIDDICPGLSLLYSDQCVSLKGNTYMFAIDDLSVSLLKYDFSTETSVPVPLPYKSRSFEAISLSVVREEKLSVLLQRDKSSKTEIWVTNVIDETTTKVMVVSWSKVLSLDLSPDLKIRYGESFLLDEEKKVIMIFNNRMEEENKSEDKLYIIGDDDNKATQVYTIHGYGPAVFNYFPSLVQIEQSSRQEEKS
protein production: failed

MEAETKTLPLENASILSEGSLQEGHRLWIGNLDPKITEYHLLKLLQKFGKVKQFDFLFHKSGALEGQPRGYCFVNFETKQEAEQAIQCLNGKLALSKKLVVRWAHAQVKRYDHNKNDKILPISLEPSSSTEPTQSNLSVTAKIKAIEAKLKMMAENPDAEYPAAPVYSYFKPPDKKRTTPYSRTAWKSRR
protein production: failed

MSDINTVNLINQMKTLAAQAEGIKPDSGLNHASFSSVFQQALNQVNELSQTADSLKTRFEIGDPNVSLGEVMIASQKSNLGFEATLRVRNKLVQAYQDIMNMPV
protein production: failed

MKSLYRSRMANHSKHGRPFTLSLPNRSQCVKIVATFAAVGLLATGGIISRSFYTSSTQAEPTTRVTAYSATDAEASRGNAREALGGDTAYVTVKINGKSRVVPGTNFTNVKSVLEAGNITLEPEDTVSPSLTTKVDEKTVITVSRAGASVEVSDSSIAFNVVKKETSSLPKGQEKVETEGEEGVMESTNLVTRSGDTVISSNMISSYVKKAPVDKVVLVGTGSTSTSSSSSSSSSTASVGTTVPAGEMQQWAHDYLISNGYTEADFTATVYIISHESGWSVSATNPSSGAYGLPQALPGSKMVSAGADWATNYQTQLKWFWGYCASRYGSIQGAYSYWLAHKCY
protein production: failed

PGLVDVHTHFMPERVLRKVWDYFDGLGPLTGGLEWPITYRSDEDQRLATIREFGVRAFTAMLYPHKAGMARWLNSWAVDFARRTPDCLHTATLFPEPGVEAYVLEAVEQGARVFKAHVQVGAYDPADELLDPVWGLLAEAGVPVVMHCGSGPAPGKHTGPGPVAQVLARHPRLRLVVAHLGMPEYEDFLDLAERYGEVRLDTTMAFTDFSERLAPFPRGARPRLAGLGDRILLGTDFPNIPYRYVDQLYALERLGLGDDWLRSVCHGNGARLFGL
protein production: failed

MSKEDAWNMVTIYPAKQLRVDEYVGSLTPGKMADIVLWNAEPLSIYAKVTHAWVEGKRYFDREQDQLAQLEHHHHHH
protein production: failed

MKKRAVLILSMMLAAQAAFYTSSNTASAAIGEAVIATDEINVRSGPGLSHEIVSVVSRNESYPILEERGDWVQIQLNGGQKGWVVSWLIKKKSQVSSGSDSASGKVTSSEANLRIRKGPGTSYEVQGVFPEGEQADLLKTDGKWIKISYQNITGWVYSDYVNQGSGAKQSQSSSSHASSSKSGTVGVSTLNVRSTASHQGRIIATLQRNASVTILNEQHGWYEIEFNGQKGWAASHYILEGNKQNSGTSETSSSSEAKRQATIVYEGTNVRSGPSTSSAIVKRTGKGESYPIVSTKGDWYEIKLSNGDSAYVASWVVQTVDQAGSAGDSKSAAPPLAKRSSSGGTIKNKTVVIDAGHGGHDSGTIGTRGTLEKRLTIKTATLLAAKLRADGVNVYMTRNDDSFVSLQSRVATSHYRNADAFISIHYDSFPNASVRGNTAYYYSPSKDRKLAADVQSEIERHSPLPSRGVLFGDYFVLRENKQPAALFELGYLSHPQEEAVVSTNAYRERVTDGIRSGLENYFD
protein production: failed

MISQASRFAPDQPPKLSCEYLTERVRALFGPHPFASQMSGDQVASLLPEYLAMSQAFPYLQAGSQRDLIFDAMHQNRDIGRDIELTSVVANFICWDETGGHGGILRGGKAALPDILLTENFHSNLLRKDAARLLGRAIRPNYSDRTKQYLHSLYAGLSSKDPLVRCAYMVAFELHAADMIQSLWTTLVKTFKARPDDLEYFRGHVGGEDPAEKYHGEMTGRLIGELVQPGLNDRFLNEFGRAYRLSVQWCRDLLGTAARTGDDHSEMQHHGRCHCGAIKFYVNAPRELSAVRCNCSICQMSGFVHLLVPGDKLRIECGEEFLTTYQFNKNIARHTFCRLCGVKPFYRPRSNPSGYSVNIRCLDRKTIEHLRISEFDGAHWEQAFLSMQQDPESCFEDQRSELEWRAQ
protein production: failed

MCGSERFQFRSGAKPLIRGRPLDSDMESLHPRVRLLWVLSTVIQASVLGVIAYLVDRFAVSLPQTVVVGGWVVLVLLGVAHAIAAHRIWRFDLQDDALFLLRGVVTRTDTSVPYVRVQHVDTTRGPVERAIGLASVVVYTAGTRGADITIPGLRPERATELREQLRDLANESEATDAV
protein production: failed
